Measured values reported in patent US20220227875A1 (UNIVERSITY OF FLORIDA RESEARCH FOUNDATION, published 2022).

Experiments:
[1] = target: human thyroid-stimulating hormone receptor (TSHR) (human) (UniProt P16473); assay: cell-based or functional assay
[2] = target: human thyroid-stimulating hormone receptor (TSHR) (human, UniProt P16473 21-764); assay: cell-based or functional assay

Molecule | cAMP levels in HEK-TSHR cells, EC50 [1] | inhibition of M22 (100 ng/ml)-induced cAMP in HEK-TSHR cells, IC50 [2] | inhibition of TSH (150 ng/ml)-induced cAMP in HEK-TSHR cells, IC50 [2]
recombinant thyroid-stimulating hormone (TSH) (ligand) | 0.168 µg/mL |  | 
thyroid-stimulating antibody M22 | 42.5 µg/mL |  | 
K1-70 thyroid blocking antibody (commercially available K1-70 antibody) (antibody, V domains shown) VH: EVQLVQSGAEVKKPGQSLKISCKASGYSLTDNWIGWVRQKPGKGLEWMGIIYPGDSDTRYSPSFQGQVTISADKSINTAYLQWSSLKASDTAIYYCVGLDWNYNPLRYWGPGTLVTVSS VL: QSVLTQPPSVSAAPGQKVTISCSGSSSDIGSNYVSWYQQFPGTAPKLLIYDNNKRPSAIPDRFSGSKSGTSATLGITGLQTGDEADYYCGTWDSRLGIAVFGGGTQLTVLG |  | 1.38 µg/mL | 1.18 µg/mL
